Like-named read-outs stand apart in the source and are kept apart here.
T1: human BCMA on NCI-H929, OPM2 and Raji cells (human, UniProt Q02223 1-184)
T1 construct: endogenous BCMA of human cell lines; also called TNFRSF17; CD269
T1 chain: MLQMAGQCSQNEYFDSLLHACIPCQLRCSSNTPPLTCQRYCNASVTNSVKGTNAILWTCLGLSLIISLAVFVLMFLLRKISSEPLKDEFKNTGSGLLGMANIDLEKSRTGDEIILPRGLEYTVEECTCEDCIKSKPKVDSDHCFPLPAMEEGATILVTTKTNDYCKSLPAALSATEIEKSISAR

T2: extracellular domain of human BCMA (human, UniProt Q02223 1-54)
T2 construct: amine-linked to Octet AR2G tips; also called hsBCMA; BCMA (human)
T2 sequence: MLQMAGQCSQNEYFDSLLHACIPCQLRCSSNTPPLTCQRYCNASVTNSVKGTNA


How the values were obtained:
[1] = biological target: T1, human BCMA on NCI-H929, OPM2 and Raji …; assay: flow cytometry, OPM2 cells
[2] = biological target: T1, human BCMA on NCI-H929, OPM2 and Raji …; assay: flow cytometry, Raji cells
[3] = biological target: T1, human BCMA on NCI-H929, OPM2 and Raji …; assay: flow cytometry, NCI-H929 cells
[4] = biological target: T1, human BCMA on NCI-H929, OPM2 and Raji …; assay: flow cytometry on NCI-H929 cells (BCMA high), fluorescent anti-human IgG1 secondary antibody, MFI against antibody conc.
[5] = biological target: T1, human BCMA on NCI-H929, OPM2 and Raji …; assay: flow cytometry, NCI-H929 cells
[6] = biological target: T1, human BCMA on NCI-H929, OPM2 and Raji …; assay: flow cytometry on NCI-H929 cells (BCMA high), fluorescent anti-human IgG1 secondary antibody, MFI against test article concentration
[7] = biological target: T2, extracellular domain of human BCMA; assay: Octet BLI; Fab 200 nM
[8] = biological target: T3, extracellular domain of rhesus monkey BCMA (rhesus monkey, UniProt F7FFA0 1-53); assay: Octet BLI; Fab 200 nM
T3 construct: extracellular domain; also called RhBCMA

[9] = biological target: T1, human BCMA on NCI-H929, OPM2 and Raji …; assay: flow cytometry, NCI-H929 cells
[10] = biological target: T2, extracellular domain of human BCMA; assay: Octet BLI; Fab 200 nM; remark: listed apart in the source
[11] = biological target: T3, extracellular domain of rhesus monkey …; assay: Octet BLI; Fab 200 nM; remark: listed apart in the source
[12] = biological target: T2, extracellular domain of human BCMA; assay: Octet BLI; Fab 200 nM; remark: listed apart in the source
[13] = biological target: T3, extracellular domain of rhesus monkey …; assay: Octet BLI; Fab 200 nM; remark: listed apart in the source
[14] = biological target: T2, extracellular domain of human BCMA; assay: Octet BLI; Fab 200 nM; remark: listed apart in the source
[15] = biological target: T3, extracellular domain of rhesus monkey …; assay: Octet BLI; Fab 200 nM; remark: listed apart in the source
[16] = biological target: T2, extracellular domain of human BCMA; assay: Octet BLI; Fab 200 nM; remark: listed apart in the source
[17] = biological target: T3, extracellular domain of rhesus monkey …; assay: Octet BLI; Fab 200 nM; remark: listed apart in the source
[18] = biological target: T2, extracellular domain of human BCMA; assay: Octet BLI; Fab 200 nM; remark: listed apart in the source
[19] = biological target: T3, extracellular domain of rhesus monkey …; assay: Octet BLI; Fab 200 nM; remark: listed apart in the source

T3 sequence (F7FFA0 entry or part of it): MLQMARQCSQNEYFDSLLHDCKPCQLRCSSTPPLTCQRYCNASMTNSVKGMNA

Row | Binder | Kd [1] [nM] | Kd [2] [nM] | Kd [3] [nM] | EC50 (read off the curve) [4] [nM] | Kd [10] [nM] | Kd [11] [nM] | also measured
1 | AB214 (antibody, human IgG1, kappa, V domains shown, IgG1 kappa) VH: QVQLVQSGAEVKKPGSSVKVSCKASGGTFSNYWIHWVRQAPGQGLEWMGATYRSQSDTYYNQKYKSRVTITADKSTSTAYMELSSLRSEDTAVYYCARGAVYHGYDVIDNWGQGTLVTVSS VL: DIQMTQSPSSLSASVGDRVTITCRASQSISSYLNWYQQKPGKAPKLLIYATSNLQIGVPSRFSGSGSGTDFTLTISSLQPEDFATYYCQQYRRIPWTFGQGTKLEIKR | 2.12 | 5.66 | 2.84 | ~3 | – | – | –
2 | AB200-mcMMAF-05 (antibody, human IgG1, kappa, V domains shown, mcMMAF (ADL10-MMAF) linker-payload on cysteine residues of the antibody, DAR 4.0, antibody-drug conjugate; also called AB200-ADL10-MMAF) VH: QVQLVQSGAEVKKPGSSVKVSCKASGGTFSNYWMHWVRQAPGQGLEWMGATYRGHSDTYYNQKFKGRVTITADKSTSTAYMELSSLRSEDTAVYYCARGAIYDGYDVLDNWGQGTLVTVSS VL: DIQMTQSPSSLSASVGDRVTITCSASQDISNYLNWYQQKPGKAPKLLIYYTSNLHSGVPSRFSGSGSGTDFTLTISSLQPEDFATYYCQQYRKLPWTFGQGTKLEIKR | – | – | – | – | – | – | Kd [5]: 6 to 10 nM; EC50 (read off the curve) [6]: ~6 nM
3 | AB200-(2Vk8)_R2-CDR2-hs-v2 (Fab, V domains shown) VH: QVQLVQSGAEVKKPGSSVKVSCKASGGSFSNYWIHWVRQAPGQGLEWMGGIIPIFGTANYAQKFQGRVTITADKSTSTAYMELSSLRSEDTAVYYCARGAIFHGYDVIDNWGQGTLVTVSS VL: DIQMTQSPSSLSASVGDRVTITCRASQSISSYINWYQQKPGKAPKLLIYATSNLQIGVPSRFSGSGSGTDFTLTISSLQPEDFATYYCQQFRKLPWSFGQGTKLEIKR | – | – | – | – | – | – | Kd [7]: 151 nM
4 | AB200-(2Vk8)_R2-CDR1-hs-v4 (Fab, V domains shown) VH: QVQLVQSGAEVKKPGSSVKVSCKASGGTFSSYAISWVRQAPGQGLEWMGATYRSQSDTFYNQKFKSRVTITADKSTSTAYMELSSLRSEDTAVYYCARGAVYHGYDVIDNWGQGTLVTVSS VL: DIQMTQSPSSLSASVGDRVTITCRASQSISSYINWYQQKPGKAPKLLIYATSNLQIGVPSRFSGSGSGTDFTLTISSLQPEDFATYYCQQFRKLPWSFGQGTKLEIKR | – | – | – | – | – | – | Kd [7]: 591 nM; Kd [8]: 773 nM
5 | AB200-ADL5-D4-05 (antibody, human IgG1, kappa, V domains shown, ADL5-D4 linker-payload on cysteine residues of the antibody, DAR 4.39, antibody-drug conjugate) VH: QVQLVQSGAEVKKPGSSVKVSCKASGGTFSNYWMHWVRQAPGQGLEWMGATYRGHSDTYYNQKFKGRVTITADKSTSTAYMELSSLRSEDTAVYYCARGAIYDGYDVLDNWGQGTLVTVSS VL: DIQMTQSPSSLSASVGDRVTITCSASQDISNYLNWYQQKPGKAPKLLIYYTSNLHSGVPSRFSGSGSGTDFTLTISSLQPEDFATYYCQQYRKLPWTFGQGTKLEIKR | – | – | – | – | – | – | Kd [5]: 6 to 10 nM; Kd [9]: 9.8 nM; EC50 (read off the curve) [6]: ~9 nM
6 | AB213 (antibody, human IgG1, kappa, V domains shown, IgG1 kappa) VH: QVQLVQSGAEVKKPGSSVKVSCKASGGTFTNYWIHWVRQAPGQGLEWMGGTYRSHSTTYYNQKFKSRVTITADKSTSTAYMELSSLRSEDTAVYYCARGAVYHGYDVIDNWGQGTLVTVSS VL: DIQMTQSPSSLSASVGDRVTITCRASQSISSYLNWYQQKPGKAPKLLIYATSNLQIGVPSRFSGSGSGTDFTLTISSLQPEDFATYYCQQFRRLPWTFGQGTKLEIKR | 1.96 | 8.83 | 4.26 | ~4 | – | – | –
7 | AB217 (antibody, human IgG1, kappa, V domains shown, IgG1 kappa) VH: QVQLVQSGAEVKKPGSSVKVSCKASGGTFTNYWIHWVRQAPGQGLEWMGATYRSHSDTYYAQKYKSRVTITADKSTSTAYMELSSLRSEDTAVYYCARGAVYHGYDVIDNWGQGTLVTVSS VL: DIQMTQSPSSLSASVGDRVTITCRASQSISSYINWYQQKPGKAPKLLIYATSNLQSGVPSRFSGSGSGTDFTLTISSLQPEDFATYYCQQYRRIPWTFGQGTKLEIKR | 2.33 | 7.31 | 3.38 | ~3 | – | – | –
8 | AB200-(2Vk44)_R2-VH-v75 (Fab, V domains shown, also called AB200_VH2-75_VK2-44) VH: QVQLVQSGAEVKKPGSSVKVSCKASGGTFSNYWIHWVRQAPGQGLEWMGATYRIQSDTYYNQKYKSRVTITADKSTSTAYMELSSLRSEDTAVYYCARGAVYHGYDVIDNWGQGTLVTVSS VL: DIQMTQSPSSLSASVGDRVTITCRASQSISSYINWYQQKPGKAPKLLIYATSNLQIGVPSRFSGSGSGTDFTLTISSLQPEDFATYYCQQYRRLPWSFGQGTKLEIKR | – | – | – | – | 1.07 | 5.53 | Kd [12]: 0.8 nM; Kd [13]: 5.22 nM
9 | AB215 (antibody, human IgG1, kappa, V domains shown, IgG1 kappa) VH: QVQLVQSGAEVKKPGSSVKVSCKASGGTFTNYWIHWVRQAPGQGLEWMGGTYRSHSTTYYNQKFKSRVTITADKSTSTAYMELSSLRSEDTAVYYCARGAVYHGYDVIDNWGQGTLVTVSS VL: DIQMTQSPSSLSASVGDRVTITCRASQSISSYLNWYQQKPGKAPKLLIYATSNLQIGVPSRFSGSGSGTDFTLTISSLQPEDFATYYCQQYRRIPWTFGQGTKLEIKR | 3.63 | 11.2 | 8.06 | ~7 | – | – | –
10 | AB200-(2Vk35)_R2-VH-v6 (Fab, V domains shown, also called AB200_VH2-06_VK2-35) VH: QVQLVQSGAEVKKPGSSVKVSCKASGGTFTNYWIHWVRQAPGQGLEWMGATYRSHSDTYYAQKYKSRVTITADKSTSTAYMELSSLRSEDTAVYYCARGAVYHGYDVIDNWGQGTLVTVSS VL: DIQMTQSPSSLSASVGDRVTITCRASQSISSYINWYQQKPGKAPKLLIYATSNLQSGVPSRFSGSGSGTDFTLTISSLQPEDFATYYCQQYRRIPWTFGQGTKLEIKR | – | – | – | – | 1.66 | 9.6 | Kd [14]: 1.29 nM; Kd [15]: 9.36 nM
11 | AB200-(2Vk31)_R2-VH-v27 (Fab, V domains shown, also called AB200_VH2-27_VK2-31) VH: QVQLVQSGAEVKKPGSSVKVSCKASGGTFSNYWIHWVRQAPGQGLEWMGATYRSQSTTYYNQKFKSRVTITADKSTSTAYMELSSLRSEDTAVYYCARGAVYHGYDVIDNWGQGTLVTVSS VL: DIQMTQSPSSLSASVGDRVTITCRASQSISSYLNWYQQKPGKAPKLLIYATSNLQIGVPSRFSGSGSGTDFTLTISSLQPEDFATYYCQQFRRLPWTFGQGTKLEIKR | – | – | – | – | 6.43 | 13.9 | Kd [16]: 7.13 nM; Kd [17]: 15.3 nM
12 | AB200-(2Vk30)_R2-VH-v37 (Fab, V domains shown, also called AB200_VH2-37_VK2-30) VH: QVQLVQSGAEVKKPGSSVKVSCKASGGTFSNYWIHWVRQAPGQGLEWMGATYRSQSDTYYNQKYKSRVTITADKSTSTAYMELSSLRSEDTAVYYCARGAVYHGYDVIDNWGQGTLVTVSS VL: DIQMTQSPSSLSASVGDRVTITCRASQSISSYLNWYQQKPGKAPKLLIYATSNLQIGVPSRFSGSGSGTDFTLTISSLQPEDFATYYCQQYRRIPWTFGQGTKLEIKR | – | – | – | – | 1.14 | 6.33 | Kd [18]: 0.81 nM; Kd [19]: 6.05 nM

Source: patent US20240327535A1 (EISAI R AND D MANAGEMENT, published 2024)
